Like-named read-outs stand apart in the source and are kept apart here. Non-standard residues stand in square brackets, D forms with d. No end group written: not given here. Cba = N[C@@H](CC1CCC1)C(=O)O

What all share (experiment): BLI
Experiment [1] concerns the target T1, SUMO-25–109MDM2 (UniProt Q00987 25-109).
The target of experiment [2] is T1, SUMO-25–109MDM2. The source holds these as a separate data set.
Experiment [3] has as its target T1, SUMO-25–109MDM2. This is another data set of the same source.

Turning to LTFEHYWAQFTSK (also: biotinylated, position not given here) [compound 6], in the experiment with SUMO-25–109MDM2 [1], the binding result was “binds”.

LTFEHY[hexylalanine]AQ[Cba]TSK [compound 37]: the affinity with SUMO-25–109MDM2 [2], expressed as Kd, was 0.5 nM. With GSGSGSGSGSGSSQETFSDLWKLLPEN (not fully specified; D-biotin on its N terminus) [biotinylated 118: modified 15–29 p53 peptide with an N-terminal Gly-Ser linker], the binding result with SUMO-25–109MDM2 [3] was “binds”.

The record behind these values is paper PMC6710073 (Nature chemical biology, 2019).
